Source: patent US20230074436A1 (DENALI THERAPEUTICS, published 2023)
No end group written: not given here. *: point of attachment. Biotin = O=C1N[C@H]2[C@H](CS[C@H]2CCCCC(=O)*)N1

Assays:
asyn_113-127_124P [1] = target: T1, asyn_113-127_124P (human); assay: Ala-scan peptide ELISA, row H, run 2
T1 construct: substitution is already in the entry; also called pep14
T1 peptide: Biotin-LEDMPVDPDNEPYEM

asyn_113-127_120A [2] = target: T2, asyn_113-127_120A (human); assay: Ala-scan peptide ELISA, row H, run 2
T2 construct: substitution is already in the entry; also called pep9
T2 peptide: Biotin-LEDMPVDADNEAYEM

asyn_113-127_124G [3] = target: T3, asyn_113-127_124G (human); assay: Ala-scan peptide ELISA, row H, run 2
T3 construct: substitution is already in the entry; also called pep13
T3 peptide: Biotin-LEDMPVDPDNEGYEM

asyn_113-127 [4] = target: T4, asyn_113-127 (human); assay: Ala-scan peptide ELISA, row C, run 2
T4 construct: also called pep1
T4 peptide: Biotin-LEDMPVDPDNEAYEM

asyn_113-127_117A [5] = target: T5, asyn_113-127_117A (human); assay: Ala-scan peptide ELISA, row C, run 2
T5 construct: substitution is already in the entry; also called pep6
T5 peptide: Biotin-LEDMAVDPDNEAYEM

[6] = target: T6, biotinylated human alpha-synuclein (human, UniProt P37840 1-140); assay: Ala-scan peptide ELISA, row C, run 2
asyn_113-127_124P [7] = target: T1, asyn_113-127_124P; assay: Ala-scan peptide ELISA, row C, run 2
asyn_113-127_122A [8] = target: T7, asyn_113-127_122A (human); assay: Ala-scan peptide ELISA, row C, run 2
T7 construct: substitution is already in the entry; also called pep11
T7 peptide: Biotin-LEDMPVDPDAEAYEM

asyn_113-127_121A [9] = target: T8, asyn_113-127_121A (human); assay: Ala-scan peptide ELISA, row C, run 2
T8 construct: substitution is already in the entry; also called pep10
T8 peptide: Biotin-LEDMPVDPANEAYEM

asyn_113-127_126A [10] = target: T9, asyn_113-127_126A (human); assay: Ala-scan peptide ELISA, row C, run 2
T9 construct: substitution is already in the entry; also called pep16
T9 peptide: Biotin-LEDMPVDPDNEAYAM

asyn_113-127_125A [11] = target: T10, asyn_113-127_125A (human); assay: Ala-scan peptide ELISA, row C, run 2
T10 construct: substitution is already in the entry; also called pep15
T10 peptide: Biotin-LEDMPVDPDNEAAEM

asyn_113-127_118A [12] = target: T11, asyn_113-127_118A (human); assay: Ala-scan peptide ELISA, row C, run 2
T11 construct: substitution is already in the entry; also called pep7
T11 peptide: Biotin-LEDMPADPDNEAYEM

asyn_113-127_115A [13] = target: T12, asyn_113-127_115A (human); assay: Ala-scan peptide ELISA, row C, run 2
T12 construct: substitution is already in the entry; also called pep4
T12 peptide: Biotin-LEAMPVDPDNEAYEM

asyn_113-127_120A [14] = target: T2, asyn_113-127_120A; assay: Ala-scan peptide ELISA, row C, run 2
asyn_113-127_116A [15] = target: T13, asyn_113-127_116A (human); assay: Ala-scan peptide ELISA, row C, run 2
T13 construct: substitution is already in the entry; also called pep5
T13 peptide: Biotin-LEDAPVDPDNEAYEM

asyn_113-127_124G [16] = target: T3, asyn_113-127_124G; assay: Ala-scan peptide ELISA, row C, run 2
asyn_113-127_119A [17] = target: T14, asyn_113-127_119A (human); assay: Ala-scan peptide ELISA, row C, run 2
T14 construct: substitution is already in the entry; also called pep8
T14 peptide: Biotin-LEDMPVAPDNEAYEM

asyn_113-127_114A [18] = target: T15, asyn_113-127_114A (human); assay: Ala-scan peptide ELISA, row C, run 2
T15 construct: substitution is already in the entry; also called pep3
T15 peptide: Biotin-LADMPVDPDNEAYEM

asyn_113-127_113A = target: T16, asyn_113-127_113A (human); assay: Ala-scan peptide ELISA, row B, run 2
T16 construct: substitution is already in the entry; also called pep2
T16 peptide: Biotin-AEDMPVDPDNEAYEM

asyn_113-127 [19] = target: T4, asyn_113-127; assay: Ala-scan peptide ELISA, row B, run 2
asyn_113-127_117A [20] = target: T5, asyn_113-127_117A; assay: Ala-scan peptide ELISA, row B, run 2
[21] = target: T6, biotinylated human alpha-synuclein; assay: Ala-scan peptide ELISA, row B, run 2
asyn_113-127_124P [22] = target: T1, asyn_113-127_124P; assay: Ala-scan peptide ELISA, row B, run 2
asyn_113-127_122A [23] = target: T7, asyn_113-127_122A; assay: Ala-scan peptide ELISA, row B, run 2
asyn_113-127_121A [24] = target: T8, asyn_113-127_121A; assay: Ala-scan peptide ELISA, row B, run 2
asyn_113-127_123A = target: T17, asyn_113-127_123A (human); assay: Ala-scan peptide ELISA, row B, run 2
T17 construct: substitution is already in the entry; also called pep12
T17 peptide: Biotin-LEDMPVDPDNAAYEM

asyn_113-127_126A [25] = target: T9, asyn_113-127_126A; assay: Ala-scan peptide ELISA, row B, run 2
asyn_113-127_125A [26] = target: T10, asyn_113-127_125A; assay: Ala-scan peptide ELISA, row B, run 2
asyn_113-127_127A = target: T18, asyn_113-127_127A (human); assay: Ala-scan peptide ELISA, row B, run 2
T18 construct: substitution is already in the entry; also called pep17
T18 peptide: Biotin-LEDMPVDPDNEAYEA

asyn_113-127_118A [27] = target: T11, asyn_113-127_118A; assay: Ala-scan peptide ELISA, row B, run 2
asyn_113-127_115A [28] = target: T12, asyn_113-127_115A; assay: Ala-scan peptide ELISA, row B, run 2
asyn_113-127_120A [29] = target: T2, asyn_113-127_120A; assay: Ala-scan peptide ELISA, row B, run 2
asyn_113-127_116A [30] = target: T13, asyn_113-127_116A; assay: Ala-scan peptide ELISA, row B, run 2
asyn_113-127_124G [31] = target: T3, asyn_113-127_124G; assay: Ala-scan peptide ELISA, row B, run 2
asyn_113-127_119A [32] = target: T14, asyn_113-127_119A; assay: Ala-scan peptide ELISA, row B, run 2
asyn_113-127_114A [33] = target: T15, asyn_113-127_114A; assay: Ala-scan peptide ELISA, row B, run 2

A450 (asyn_113-127_124P [1]): 0.046 OD | A450 (asyn_113-127_120A [2]): 0.057 OD | A450 (asyn_113-127_124G [3]): 0.066 OD | A450 (asyn_113-127 [4]): 0.307 OD | A450 (asyn_113-127_117A [5]): 0.441 OD | A450 [6]: 0.976 OD | A450 (asyn_113-127_124P [7]): 0.055 OD | A450 (asyn_113-127_122A [8]): 0.051 OD | A450 (asyn_113-127_121A [9]): 0.281 OD | A450 (asyn_113-127_126A [10]): 0.369 OD | A450 (asyn_113-127_125A [11]): 0.052 OD | A450 (asyn_113-127_118A [12]): 0.44 OD | A450 (asyn_113-127_115A [13]): 0.306 OD | A450 (asyn_113-127_120A [14]): 0.223 OD | A450 (asyn_113-127_116A [15]): 0.393 OD | A450 (asyn_113-127_124G [16]): 0.295 OD | A450 (asyn_113-127_119A [17]): 0.046 OD | A450 (asyn_113-127_114A [18]): 0.367 OD | A450 (asyn_113-127_113A): 0.407 OD | A450 (asyn_113-127 [19]): 0.394 OD | A450 (asyn_113-127_117A [20]): 0.459 OD | A450 [21]: 0.931 OD | A450 (asyn_113-127_124P [22]): 0.058 OD | A450 (asyn_113-127_122A [23]): 0.06 OD | A450 (asyn_113-127_121A [24]): 0.317 OD | A450 (asyn_113-127_123A): 0.378 OD | A450 (asyn_113-127_126A [25]): 0.392 OD | A450 (asyn_113-127_125A [26]): 0.057 OD | A450 (asyn_113-127_127A): 0.429 OD | A450 (asyn_113-127_118A [27]): 0.382 OD | A450 (asyn_113-127_115A [28]): 0.387 OD | A450 (asyn_113-127_120A [29]): 0.24 OD | A450 (asyn_113-127_116A [30]): 0.433 OD | A450 (asyn_113-127_124G [31]): 0.326 OD | A450 (asyn_113-127_119A [32]): 0.056 OD | A450 (asyn_113-127_114A [33]): 0.387 OD
B1: 20H4 (antibody, rat IgG2b, V domains shown)
VH: AVQLVESGGGLVQPKESLKISCAASGFTFSNAAMYWVRQAPGKGLELLARIRTKPNNYATYHADSVKGRFTISRDDSQSMVYLHMGNLKTEDTAMYYCTADMATGDYWGPGVMVTVSS
VL: DIQMTQSPPVLSVSVGDRVTLSCKASQNINKNLDWYQQKHGEAPKPLIYSTNNLQTGVPSRFSGSGSGTDYTLTISSLQPEDVATYYCYQYKSAWTFGGGTKLELR
notes: also called clone 20H4; rat 20H4
